Data taken from publication PMC9204493.

Tests used:
Experiment in all cases: SEC-MALS; Superose 6 Increase 10/300, 1x PBS pH 7.4, 0.4 mL/min, non-denaturing; self-assembly of the fusion protein into the nanoparticle
[1] = molecular target: pH1HA10-Ferritin (Helicobacter pylori) (UniProt Q9ZLI1)
[2] = molecular target: MsDps2-pH1HA10 (Mycobacterium smegmatis)
[3] = molecular target: Encapsulin-pH1HA10 (Myxococcus xanthus) (UniProt Q1D6H4)

Substance “pH1HA10-Ferritin (from UniProt Q9ZLI1 1-163)” has a stoichiometry N [1] of 24.
Work on MsDps2-pH1HA10 yielded a stoichiometry N [2] of 12.
“Encapsulin-pH1HA10 (from UniProt Q1D6H4 1-287)” gave a stoichiometry N [3] of 180.
